# Patent US20250019453A1 (SYNTHEKINE, published 2025)
# Molecular target: T1, mIL2Rb ECD antigen (murine, UniProt P16297 27-240)
# T1 construct: The immunogen was the ECD fused to human IgG1 hinge and Fc; also called ECD of IL2Rb (mouse)
# T1 sequence: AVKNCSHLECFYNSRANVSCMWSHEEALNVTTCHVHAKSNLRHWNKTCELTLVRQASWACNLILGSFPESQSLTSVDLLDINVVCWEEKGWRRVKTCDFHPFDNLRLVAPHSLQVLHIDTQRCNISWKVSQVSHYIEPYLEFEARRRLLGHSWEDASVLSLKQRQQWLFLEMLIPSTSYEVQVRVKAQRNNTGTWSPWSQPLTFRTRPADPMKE
# Test: PE-ELISA of phage clones
row,Binder,binding result
1,"DR1460 (VHH, As a his-tagged phage clone periplasmic extract) VHH: EVQLVESGGGLVQTGDSLRLSCAAPESIFNNNAVYWYRQFPGKEREYVGLITIGGRTGYADSVKGRFTISRDNANNVAFLQMDSLKPEDTAVYYCATGLKFGFNFYSKTAYDYWGQGTQVTVSS",binds
2,"DR1467 (VHH, As a his-tagged phage clone periplasmic extract) VHH: EVQLVESGGGLVQAGDSLRLSCAASGRISNYAMGWFRQAPGKEREFVAVITRSGGSTYYADSVKGRFTISRDNGKNTIDLQMNRLKPEDTAVYYCAVRRSQKLVTFGAEYPWWGQGTLVTVSS",binds
3,"DR1468 (VHH, As a his-tagged phage clone periplasmic extract) VHH: EVQLVESGGGLVQAGGSLRLSCTTSGRTGTHYAMGWFRQAPGKEREFVSLILWNGEFTTYKDSVKGRFTISREKGENTVYLQMNSLKPEDTAVYYCYLRVFARRYWGQGTQVTVSS",binds
4,"DR1459 (VHH, As a his-tagged phage clone periplasmic extract) VHH: EVQLVESGGGLVQAGGSLRLSCAASGRTISTYAMVWFRQASGKEREFVGVISRSGDRTYYADSVKGRFTISRDNLGNIVRLQLNSLKPEDTAVYYCARGGYTGIETITARGRGTLVTVSS",binds
5,"DR1463 (VHH, As a his-tagged phage clone periplasmic extract) VHH: EVQLVESGGSVVQPGDSLRLACTASGRSFRSYAIGWFRQASGKERVFVAAISYDGRRTYYGRSLKDRFTISRDNAKNTVYLQMNSLKPEDTAVYYCATHRSGTMFARYGMDYWGKGTLVTVSS",binds
6,"DR1454 (VHH, As a his-tagged phage clone periplasmic extract) VHH: EVQLVESGGGLVQAGGSLRLFCASSERTFGDYPIGWFRQAPGKEREFVASISWGGSRQYYTDSVKGRFTITRDNDKNTVYLQMNSLKPEDTAVYYCWVRVRLSNTALLQRYWGQGTLVTVSS",binds
7,"DR1452 (VHH, As a his-tagged phage clone periplasmic extract) VHH: EVQLVESGGGLVQAGGALRLSCAASGRTFRRFMGWFRQAPGKEREFVAAINWPGGGTYYGDSVKGRFTISRDNAKNTVYLQMNSLKPEDTANYYCAATRKYNLYKFADWGQGTQVTVSS",binds
8,"DR1469 (VHH, As a his-tagged phage clone periplasmic extract) VHH: EVQLVESGGGLVQPGGSLRLSCEVSGFTFSNYWMYWIRQAPGKGLEWVSHINTNGGNTYYRHSVKGRFTISRDNAKNTLYLQMNGLKSEDTAVYYCAKANSDVGLGYYGMDYWGKGTQVTVSS",binds
9,"DR1465 (VHH, As a his-tagged phage clone periplasmic extract) VHH: EVQLVESGGGLMQAGGALRLSCTASGPTFTSYTMGWFRQSPGKRREFVAVISKGGRTYYADSVKGRFTISRDNAKNTFYLQMSSLKPEDTAVYYCAGQRVGATSKYEYDYWGQGTQVTVSS",binds
10,"DR1456 (VHH, As a his-tagged phage clone periplasmic extract) VHH: EVQLVESGGGLVQAGGSLRLSCAASGLTFRTYYMSWFRQAPGKEREFVGVISWIGSTTLYADSVKGRFSISRDNAKNTVYLQMNNLKPEDTAVYYCAANFLREGKREPRYWGQGTQVTVSS",binds
11,"DR1455 (VHH, As a his-tagged phage clone periplasmic extract) VHH: EVQLVESGGGLVQTGGSLRLSCAASGRTFNSYAMGWFRQSPGKEREFVAVITWNSGRTYYADSVKGRFTISRDNAKNTVYLQMNSLKPEDTAVYYCNSAPWAHNREWGQGTLVTVSS",binds
12,"DR1449 (VHH, As a his-tagged phage clone periplasmic extract) VHH: EVQLVESGGGLVQAGGSLRLSCAASGRSFSGYAIGWFRQAPGKEREFVAVVSWRGSSTYYADSVKGRFTISRDNAKGTVYLQMNSLKPEDTAAYYCAAVPSGRSWYGRNRYWGQGTQVTVSS",binds
13,"DR1457 (VHH, As a his-tagged phage clone periplasmic extract) VHH: EVQLVESGGRLVQAGDSLRLSCVASGRIFNTYSMGWFRQVPGKERDFVAAIRWSGGTTYYTDSVKGRFTISRDNAKNTVYLQMNSLKPEDTAVYYCYLRVFARRYWGQGTQVTVSS",binds
14,"DR1464 (VHH, As a his-tagged phage clone periplasmic extract) VHH: EVQLVESGGGLVQAGGSLRLSCAASGRTFSSYAMGWFRQAPGKEREFVTAISRSGGYTSYADSVKGRFTISRDNAKNTVYLQMNSLKPEDTAVYYCAKLIAPFYYGMDYWTKGTQVTVSS",binds
15,"DR1450 (VHH, As a his-tagged phage clone periplasmic extract) VHH: EVQLVESGGGLVQAGGSLRLSCVISGRSINYYRMGWFRQAPGNRRQFVAAIKWGGDGVYADSVKGRFTISRDNTKNTVYLQMDSLKPEDTGTYYCAKMPLSSWSRGGYLEVWGQGTLVTVSS",binds
16,"DR1466 (VHH, As a his-tagged phage clone periplasmic extract) VHH: EVQLVESGGGLVRAGGSLRLSCAASGFTFSTDWMYWVRRAPGKGLEWVSLINTDGTSTSYTKSVKGRFTVSRDNAKNTLYLQMNSLKPEDTALYYCARGRTYWFYAMDYWGKGTQVTVSS",binds
17,"DR1470 (VHH, As a his-tagged phage clone periplasmic extract) VHH: EVQLVESGGGSVQPGGSLRLSCAAPESIFNNNAVYWYRQFPGKEREYVGLITIGGRTGYADSVKGRFTISRDNANNVAFLQMDNLKPEDTAVYYCAARPGYWSSSYDYWGQGTQVTVSS",binds
18,"DR1462 (VHH, As a his-tagged phage clone periplasmic extract) VHH: EVQLVESGGGLVQAGGSLRLSCVSSGRTFGYVAMGWFRQAPGKEREFVASINWSGGSTAYADSVKGRFTISRDNAKNTVYLQMNSLKPEDTAVYYCAGSTRFYIATMEQGSYDYWGQGTQVTVSS",binds
19,"DR857 (VHH, As a his-tagged phage clone periplasmic extract) VHH: QVQLQESGGGLVQPGGSLRLSCAASGFTFSLYDMSWVRQAPGKGLEWVSGINSGGYSTYYAASAKGRFTISRDNAKNTLYLQLSSVKTEDTAMYYCAQRGLTSPYVIPNIRLQGTQVTVSS",binds
20,"DR1458 (VHH, As a his-tagged phage clone periplasmic extract) VHH: EVQLVESGGGLVQAGGSLRLSCAASGRTLSTYAMGWFRQAPGKEREFVAAIRWASGRTYYGDSVKGRFTISRDSAKNTVYLQMNSLKPEDTAVYYCAARSRPYLNYGDFGYWGQGTQVTVSS",binds
21,"DR1448 (VHH, As a his-tagged phage clone periplasmic extract) VHH: EVQLVESGGRLVQAGDSLRLSCVASGKSFSDYPLGWFRQAPGKAREYVAHISWSGKLTYYRSTVKGRFTISRDNAENKLYLQMNALKPEDTAVYYCAAMKLFNYGGRYCVLKPLTMYQQWSQGTQVTVSS",binds
22,"DR1453 (VHH, As a his-tagged phage clone periplasmic extract) VHH: EVQLVESGGRLVQAGDSLRLSCVASGRIFNTYSMGWFRQVPGKERDFVAAIRWSGGTTYYTDSVKGRFTISRDNAKNTVYLQMNSLKPEDTAVYYCWVRVRLSNTALLQRYWGQGTLVTVSS",binds
23,"DR1451 (VHH, As a his-tagged phage clone periplasmic extract) VHH: EVQLVESGGGLVQAGDSLRLSCAASERFSWGNYAMYWFRQAPGKEREFVAAIGRNSMATYYRDSAKGRFVISRDNAKNTLYLEMNALKPEDTARYYCAAKFMVADGWSRQYDYWGQGTLVTVSS",binds
24,"DR1461 (VHH, As a his-tagged phage clone periplasmic extract) VHH: EVQLVESGGRLVQAGDSLRLSCVASGRIFNTYSMGWFRQVPGKERDFVAAIRWSGGTTYYTDSVKGRFTISRDNAKNTVYLQMKDLKPQDTAVYYCAAVPSGRSWYGRNRYWGQGTLVTVSS",binds
